{
  "source": "patent US9791449B2",
  "about": "“Ovarian cancer stem cells and methods of isolation and uses thereof” (THE GENERAL HOSPITAL CORPORATION, priority 2011, dated 2017)",
  "molecules": {"B1": {"name": "MIS: 140 kDa glycoprotein disulfide linked homodimer secreted by fetal testes; produced recombinantly and immunoaffinity purified (protein, listed as Homo sapiens)", "chain": "MRDLPLTSLALVLSALGALLGTEALRAEEPAVGTSGLIFREDLDWPPGSPQEPLCLVALGGDSNGSSSPLRVVGALSAYEQAFLGAVQRARWGPRDLATFGVCNTGDRQAALPSLRRLGAWLRDPGGQRLVVLHLEEVTWEPTPSLRFQEPPPGGAGPPELALLVLYPGPGPEVTVTRAGLPGAQSLCPSRDTRYLVLAVDRPAGAWRGSGLALTLQPRGEDSRLSTARLQALLFGDDHRCFTRMTPALLLLPRSEPAPLPAHGQLDTVPFPPPRPSAELEESPPSADPFLETLTRLVRALRVPPARASAPRLALDPDALAGFPQGLVNLSDPAALERLLDGEEPLLLLLRPTAATTGDPAPLHDPTSAPWATALARRVAAELQAAAAELRSLPGLPPATAPLLARLLALCPGGPGGLGDPLRALLLLKALQGLRVEWRGRDPRGPGRAQRSAGATAADGPCALRELSVDLRAERSVLIPETYQANNCQGVCGWPQSDRNPRYGNHVVLLLKMQARGAALARPPCCVPTAYAGKLLISLSEERISAHHVPNMVATECGCR", "modifications": "homodimer"}},
  "key": {"[1]": {"system": "ovarian cancer cells marked by CD44, CD24, and Epcam (3+)", "settings": "cited from earlier work"}, "[2]": {"system": "Lin28 in OVCAR-5 cells or primary ascites", "experiment": "Effect of exogenously administered MIS on Lin28 expression", "type": "cell-based, human", "settings": "separated or unseparated OVCAR-5 cells or primary ascites; data not shown"}, "[3]": {"settings": "in vivo; cited from earlier work"}, "[4]": {"system": "SMAD1/5/8 in OVCAR-5 cells", "experiment": "Western blot with phospho-Smad1/5/8 antibody", "type": "cell-based, human", "settings": "OVCAR-5, 100 ug/ml MIS for 15 min, 2, 4 and 6 h", "description": "(§1) FIGS. 5A-5B show MISRII is expressed in ovarian cancer cell lines and SMAD 1/5/8 is phosphorylated after treatment with purified MIS. FIG. 5A show expression of MIS type II receptor in human ovarian cancer cell lines OVCAR-5, IGROV-1 and SKOV-3, and in mouse ovarian cancer cell line MOVCAR-8 were analyzed by immunoprecipitation and cross immunoblotting (IB) of lysates with anti-MISRII (Left) Immunoblotting was also performed to detect MISRII expression in separated 3+, 3−, 3+/Ecad−, 3−Ecad+ of OVCAR-5 xenograft tumors (Right). COS cells transfected with a MISRII vector or a pcDNA empty vector served as positive or negative controls (Right). […] MOVCAR-8 (Left) or OVCAR-5 (Right) cells were treated with 20 ug/ml (Left) or 100 ug/ml (Right) MIS for 15 min, 2, 4 and 6 h, and protein was analyzed by Western blot using a phospho-Smad1/5/8 antibody.\n(§2) Lysates were harvested in lysis buffer (Cell Signaling; catalog no. 9803) for 15 min from 80% subconfluent cells or from ascite cells after lysing red cells. Proteins were fractionated on SDS-polyacrylamide gels and transferred to a membrane. […] Blots were washed (three times) with TBST the following day for 30 min and incubated with the appropriate peroxidase-conjugated second antibodies for 1 h, and bound antibodies were detected with enhanced chemiluminescence (PerkinElmer Life Sciences)."}, "[5]": {"system": "MOVCAR-7 and MOVCAR-8 cell lines", "experiment": "qPCR of CDK inhibitor mRNAs relative to GAPDH", "type": "cell-based, mouse", "description": "Total microRNA (miRNAs) were extracted from the different cell lines HOSE-4, HOSE-6, OVCAR-5, OVCAR-3, OVCAR-8, IGROV-1, and SKOV-3 using the miRNeasy Mini kit (QIAGEN) and reverse-transcribed to cDNAs using the TaqMan MicroRNA Reverse Transcription Kit (Applied Biosystems). Levels of Let-7c miRNAs were measured by quantitative PCR using TagMan Let-7 probes (Applied Biosystems; part no. 4373167) with U47 RNA as internal standard for normalization. Total mRNAs were also extracted from separated and unseparated OVCAR-5, MOVCAR-7, and MOVCAR-8 cell lines using an RNeasy Mini kit (QIAGEN) and reverse-transcribed to cDNAs using the SuperScript III Reverse Transcription Kit (Invitrogen). Levels of Lin28 and cyclin-dependent kinase (CDK) inhibitor mRNAs were measured by quantitative PCR with GAPDH as an internal standard using the following primers: […]\nLIN28 F ([…])(SEQ ID NO: 34) and R ([…])(SEQ ID NO: 35); p15 F ([…])(SEQ ID NO: 36) and R ([…])(SEQ ID NO: 37); p16 F ([…])(SEQ ID NO: 38) and R ([…])(SEQ ID NO: 39); p18 F ([…])(SEQ ID NO: 40) and R ([…])(SEQ ID NO: 41); p19F ([…])(SEQ ID NO: 42) and R ([…])(SEQ ID NO: 43); p21 F ([…])(SEQ ID NO: 44) and R ([…])(SEQ ID NO: 45); p27 F ([…])(SEQ ID NO: 46) and R ([…])(SEQ ID NO: 47); CDK2 F ([…])(SEQ ID NO: 48) and R ([…])(SEQ ID NO: 49); CDK4 F ([…])(SEQ ID NO: 50) and R([…])(SEQ ID NO: 51); CDK6 F ([…])(SEQ ID NO: 52) and R ([…])(SEQ ID NO: 53); and GAPDH F ([…])(SEQ ID NO: 54) and R ([…])(SEQ ID NO: 55). Relative fold changes of Let-7c miRNAs and Lin28 and CDK inhibitor mRNAs were calculated as ΔCt or ΔΔCt (1) (n=3 for each primer)."}, "3+/Ecad− OVCAR-5 cells": {"system": "3+/Ecad− OVCAR-5 cells", "experiment": "Colony formation assay of FACS-separated cells", "type": "cell-based, human", "settings": "OVCAR-5 3+/Ecad− cells, 2000 cells in six-well plates; MIS 30 ug/ml or Doxorubicin 30 nM vs media, 14 days", "description": "Colony formation was performed as previously described (4; wei 2010). 3+/Ecad− or 3−/Ecad+ cells separated from the ovarian cancer cell lines were treated with MIS or doxorubicin, cisplatin, or taxol, then plated on 6-well plates containing 2 ml/well complete DMEM medium at 500, 1000, or 2000 cells/well, and incubated for 14 days at 37° C., with a media change at day 7. Cells separated from primary ascites were plated on 12-well plates coated by metrigel or by agarose for colony formation assays at 25,000, 50,000, or 100,000 cells/well. Cells were seeded on 1:2 metrigel or in 0.4% agarose over a 0.8% layer, and incubated for 3-4 weeks at 37° C. At day 14 (cell lines) or day 21 (ascites), plates were washed with 1×PBS, and cells fixed with methanol. Resulting colonies were stained with Giemsa and the stained area captured and analyzed using Image J (Rasband, NIH, USA, http://rsb.info.nih.gov/ij/). Large colonies greater than 4 mm at 10× magnification were also counted and compared."}, "OVCAR-8 cells": {"system": "OVCAR-8 cells", "settings": "cited from earlier work"}, "[6]": {"system": "epithelial ovarian cancers", "settings": "cited from earlier work"}, "3+/Ecad− population": {"system": "3+/Ecad− population", "settings": "cited from earlier work"}, "OVCAR-5 cells": {"system": "OVCAR-5 cells", "experiment": "Cell cycle analysis by flow cytometry", "type": "cell-based, human", "settings": "100 μg/mL (714 nM) MIS or 60 nM doxorubicin, 48 h", "description": "OVCAR-5 was grown to 50-60% confluency in DMEM with 10% FCS, untreated or treated with 100 μg/mL (714 nM) MIS or 60 nM doxorubicin for 48 h, harvested, and incubated with 10 μg/mL Hoechst 33342 at 37° C. for 30 min or 40 μg/mL propidium iodide (Sigma) at 25° C. for 30 min. Cells were stained with anti-human CD24-PE, anti-mouse/human CD44-APC/Cy7, anti-human Epcam-APC, and anti-human Ecadherin-FITC for 20 min at 4° C. and fixed in paraformaldehyde (1%), and the cell cycle was analyzed using the SORP LSRII."}, "[7]": {"system": "SMAD1/5/8 in MOVCAR-8 cells", "experiment": "Western blot with phospho-Smad1/5/8 antibody", "type": "cell-based, mouse", "settings": "MOVCAR-8, 20 ug/ml MIS for 15 min, 2, 4 and 6 h", "description": "as §1, §2"}, "[8]": {"settings": "listed as human recombinant MIS"}},
  "note": "“Also recorded” adds a separate entry of the source.",
  "data": [
    {"molecule": "B1", "values": [
      {"measurement": "inhibition of 3+ enriched population", "setting": "[1]", "result": "significantly inhibited"},
      {"measurement": "effect on Lin28 expression", "setting": "[2]", "result": "no direct effect"},
      {"measurement": "toxicity after prolonged therapy", "setting": "[3]", "result": "without obvious toxicity"},
      {"measurement": "SMAD1/5/8 phosphorylation", "setting": "[4]", "result": "significantly increased"},
      {"measurement": "SMAD1/5/8 phosphorylation", "setting": "[4]; [8]", "result": "activates SMAD1/5/8 signaling"},
      {"measurement": "p15 expression", "setting": "[5]; MOVCAR-7 and -8, 50 μg/mL MIS or 60 nM doxorubicin vs vehicle, 4 h", "result": "specifically increased; also recorded: significant and opposite responses"},
      {"measurement": "other CDK inhibitors mRNA levels (p18, p19, p21, p27)", "setting": "[5]; MOVCAR-7 or -8, 50 μg/mL MIS or 60 nM doxorubicin, 4 h", "result": "did not regulate significantly"},
      {"measurement": "p16 expression", "setting": "[5]; MOVCAR-8, 50 μg/mL MIS vs vehicle, 4 h", "result": "specifically increased"},
      {"measurement": "kinases tested (CDK2, CDK4, CDK6)", "setting": "[5]; transgenic cell lines treated with MIS or doxorubicin, data not shown", "result": "unaffected"},
      {"measurement": "colony formation of 3+/Ecad− cells", "setting": "3+/Ecad− OVCAR-5 cells", "result": "decreased colony formation; also recorded: decreases significantly; also recorded: significantly inhibited colony growth; also recorded: significant reduction in absolute colony number and cell number; also recorded: significant reduction in absolute colony numbers; also recorded: inhibited colony formation"},
      {"measurement": "P16 protein level", "setting": "OVCAR-8 cells", "result": "upregulated"},
      {"measurement": "combination with commonly used cancer drugs to control tumor growth", "setting": "[6]", "result": "synergistically or additively"},
      {"measurement": "growth of epithelial ovarian cancers", "setting": "[6]; in vitro and in vivo", "result": "inhibits their growth"},
      {"measurement": "response of 3+/Ecad− population", "setting": "3+/Ecad− population", "result": "responded well"},
      {"measurement": "G1 distribution of 3+/Ecad+ population", "setting": "OVCAR-5 cells", "result": "neither MIS nor doxorubicin affected"},
      {"measurement": "percentage of 3+/Ecad− cells in G1", "setting": "OVCAR-5 cells", "result": "inducing G1 arrest; also recorded: significantly increased; also recorded: G1 accumulation; also recorded: induces G1 cell cycle arrest"},
      {"measurement": "SMAD1/5/8 phosphorylation", "setting": "[7]", "result": "significantly increased"},
      {"measurement": "SMAD1/5/8 phosphorylation", "setting": "[7]; [8]", "result": "activates SMAD1/5/8 signaling"}
    ]}
  ]
}
